Test results from the supplement of paper PMC5998384.

Legend:
HeLa Kyoto [1] = experiment: thermal stability score vs G1/S (z-score of summed log2 fold changes over temperatures); higher = more thermally stable than in G1/S
HeLa Kyoto [2] = experiment: melting temperature (median over replicates), in situ; higher = more thermally stable
HeLa Kyoto [3] = experiment: solubility in G1/S (NP-40 vs SDS abundance) (log2 ratio); higher = more soluble; settings: cell cycle stage: G1/S
HeLa Kyoto [4] = experiment: solubility change mitosis vs G1/S (difference of NP-40 vs SDS log2 ratios) (log2 ratio difference); higher = more soluble in mitosis
[5] = cell cycle stage: early G1 (4.5 h after nocodazole release)
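Wherever melting temperature (median over replicates), in situ is given: HeLa Kyoto cells synchronized by double thymidine or nocodazole block, proteins quantified by TMT10plex mass spectrometry, three independent biological replicates.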
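Wherever solubility change mitosis vs G1/S (difference of NP-40 vs SDS log2 ratios) is given: synchronized HeLa Kyoto cells (double thymidine block for G1/S, nocodazole release for mitosis), protein amounts in NP-40 versus SDS lysates quantified by mass spectrometry, three biological replicates.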
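Wherever solubility in G1/S (NP-40 vs SDS abundance) is given: HeLa Kyoto cells arrested at G1/S by double thymidine block, proteins quantified by TMT10plex mass spectrometry in mild NP-40 versus SDS extracts, three biological replicates.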
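Wherever thermal stability score vs G1/S (z-score of summed log2 fold changes over temperatures) is given: synchronized HeLa Kyoto cells, proteins quantified by TMT10plex mass spectrometry, three biological replicates, mitosis taken 0.5 h after nocodazole release, G1/S directly after double thymidine block.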

| Sequence | thermal stability score (HeLa Kyoto [1]; [5]) | thermal stability score (HeLa Kyoto [1]; cell cycle stage: mitosis) | melting temperature (HeLa Kyoto [2]; cell cycle stage: G1/S) [°C] | melting temperature (HeLa Kyoto [2]; cell cycle stage: mitosis) [°C] | solubility in G1/S (log2) (HeLa Kyoto [3]) | solubility change mitosis (log2) (HeLa Kyoto [4]) |
| --- | --- | --- | --- | --- | --- | --- |
| MRLFVSDGVPGCLPVLAAAGRARGRAEVLISTVGPEDCVVPFLTRPKVPVLQLDSGNYLFSTSAICRYFFLLSGWEQDDLTNQWLEWEATELQPALSAALYYLVVQGKKGEDVLGSVRRALTHIDHSLSRQNCPFLAGETESLADIVLWGALYPLLQDPAYLPEELSALHSWFQTLSTQEPCQRAAETVLKQQGVLALRPYLQKQPQPSPAEGRAVTNEPEEEELATLSEEEIAMAVTAWEKGLESLPPLRPQQNPVLPVAGERNVLITSALPYVNNVPHLGNIIGCVLSADVFARYSRLRQWNTLYLCGTDEYGTATETKALEEGLTPQEICDKYHIIHADIYRWFNISFDIFGRTTTPQQTKITQDIFQQLLKRGFVLQDTVEQLRCEHCARFLADRFVEGVCPFCGYEEARGDQCDKCGKLINAVELKKPQCKVCRSCPVVQSSQHLFLDLPKLEKRLEEWLGRTLPGSDWTPNAQFITRSWLRDGLKPRCITRDLKWGTPVPLEGFEDKVFYVWFDATIGYLSITANYTDQWERWWKNPEQVDLYQFMAKDNVPFHSLVFPCSALGAEDNYTLVSHLIATEYLNYEDGKFSKSRGVGVFGDMAQDTGIPADIWRFYLLYIRPEGQDSAFSWTDLLLKNNSELLNNLGNFINRAGMFVSKFFGGYVPEMVLTPDDQRLLAHVTLELQHYHQLLEKVRIRDALRSILTISRHGNQYIQVNEPWKRIKGSEADRQRAGTVTGLAVNIAALLSVMLQPYMPTVSATIQAQLQLPPPACSILLTNFLCTLPAGHQIGTVSPLFQKLENDQIESLRQRFGGGQAKTSPKPAVVETVTTAKPQQIQALMDEVTKQGNIVRELKAQKADKNEVAAEVAKLLDLKKQLAVAEGKPPEAPKGKKKK [MARS] | 1.07 | 4.3 | 49.1 | 49.4 | 0.171 | -0.109 |
| MRLGPRTAALGLLLLCAAAAGAGKAEELHYPLGERRSDYDREALLGVQEDVDEYVKLGHEEQQKRLQAIIKKIDLDSDGFLTESELSSWIQMSFKHYAMQEAKQQFVEYDKNSDDTVTWDEYNIQMYDRVIDFDENTALDDAEEESFRKLHLKDKKRFEKANQDSGPGLSLEEFIAFEHPEEVDYMTEFVIQEALEEHDKNGDGFVSLEEFLGDYRWDPTANEDPEWILVEKDRFVNDYDKDNDGRLDPQELLPWVVPNNQGIAQEEALHLIDEMDLNGDKKLSEEEILENPDLFLTSEATDYGRQLHDDYFYHDEL [RCN2] | 4.55 | 0.298 | 54.1 | 55.7 | 0.0519 | 0.0798 |
| MRLLRRRHMPLRLAMVGCAFVLFLFLLHRDVSSREEATEKPWLKSLVSRKDHVLDLMLEAMNNLRDSMPKLQIRAPEAQQTLFSINQSCLPGFYTPAELKPFWERPPQDPNAPGADGKAFQKSKWTPLETQEKEEGYKKHCFNAFASDRISLQRSLGPDTRPPECVDQKFRRCPPLATTSVIIVFHNEAWSTLLRTVYSVLHTTPAILLKEIILVDDASTEEHLKEKLEQYVKQLQVVRVVRQEERKGLITARLLGASVAQAEVLTFLDAHCECFHGWLEPLLARIAEDKTVVVSPDIVTIDLNTFEFAKPVQRGRVHSRGNFDWSLTFGWETLPPHEKQRRKDETYPIKSPTFAGGLFSISKSYFEHIGTYDNQMEIWGGENVEMSFRVWQCGGQLEIIPCSVVGHVFRTKSPHTFPKGTSVIARNQVRLAEVWMDSYKKIFYRRNLQAAKMAQEKSFGDISERLQLREQLHCHNFSWYLHNVYPEMFVPDLTPTFYGAIKNLGTNQCLDVGENNRGGKPLIMYSCHGLGGNQYFEYTTQRDLRHNIAKQLCLHVSKGALGLGSCHFTGKNSQVPKDEEWELAQDQLIRNSGSGTCLTSQDKKPAMAPCNPSDPHQLWLFV [GALNT6] | 4 | 5.54 | 53.6 | 53.2 | 0.0486 | -0.117 |
| MRPEPGGCCCRRTVRANGCVANGEVRNGYVRSSAAAAAAAAAGQIHHVTQNGGLYKRPFNEAFEETPMLVAVLTYVGYGVLTLFGYLRDFLRYWRIEKCHHATEREEQKDFVSLYQDFENFYTRNLYMRIRDNWNRPICSVPGARVDIMERQSHDYNWSFKYTGNIIKGVINMGSYNYLGFARNTGSCQEAAAKVLEEYGAGVCSTRQEIGNLDKHEELEELVARFLGVEAAMAYGMGFATNSMNIPALVGKGCLILSDELNHASLVLGARLSGATIRIFKHNNMQSLEKLLKDAIVYGQPRTRRPWKKILILVEGIYSMEGSIVRLPEVIALKKKYKAYLYLDEAHSIGALGPTGRGVVEYFGLDPEDVDVMMGTFTKSFGASGGYIGGKKELIDYLRTHSHSAVYATSLSPPVVEQIITSMKCIMGQDGTSLGKECVQQLAENTRYFRRRLKEMGFIIYGNEDSPVVPLMLYMPAKIGAFGREMLKRNIGVVVVGFPATPIIESRARFCLSAAHTKEILDTALKEIDEVGDLLQLKYSRHRLVPLLDRPFDETTYEETED [SPTLC2] | 0.665 | -0.386 | 53 | 52.7 | 0.00928 | -0.16 |
| MRPFFLLCFALPGLLHAQQACSRGACYPPVGDLLVGRTRFLRASSTCGLTKPETYCTQYGEWQMKCCKCDSRQPHNYYSHRVENVASSSGPMRWWQSQNDVNPVSLQLDLDRRFQLQEVMMEFQGPMPAGMLIERSSDFGKTWRVYQYLAADCTSTFPRVRQGRPQSWQDVRCQSLPQRPNARLNGGKVQLNLMDLVSGIPATQSQKIQEVGEITNLRVNFTRLAPVPQRGYHPPSAYYAVSQLRLQGSCFCHGHADRCAPKPGASAGPSTAVQVHDVCVCQHNTAGPNCERCAPFYNNRPWRPAEGQDAHECQRCDCNGHSETCHFDPAVFAASQGAYGGVCDNCRDHTEGKNCERCQLHYFRNRRPGASIQETCISCECDPDGAVPGAPCDPVTGQCVCKEHVQGERCDLCKPGFTGLTYANPQGCHRCDCNILGSRRDMPCDEESGRCLCLPNVVGPKCDQCAPYHWKLASGQGCEPCACDPHNSLSPQCNQFTGQCPCREGFGGLMCSAAAIRQCPDRTYGDVATGCRACDCDFRGTEGPGCDKASGRCLCRPGLTGPRCDQCQRGYCNRYPVCVACHPCFQTYDADLREQALRFGRLRNATASLWSGPGLEDRGLASRILDAKSKIEQIRAVLSSPAVTEQEVAQVASAILSLRRTLQGLQLDLPLEEETLSLPRDLESLDRSFNGLLTMYQRKREQFEKISSADPSGAFRMLSTAYEQSAQAAQQVSDSSRLLDQLRDSRREAERLVRQAGGGGGTGSPKLVALRLEMSSLPDLTPTFNKLCGNSRQMACTPISCPGELCPQDNGTACGSRCRGVLPRAGGAFLMAGQVAEQLRGFNAQLQRTRQMIRAAEESASQIQSSAQRLETQVSASRSQMEEDVRRTRLLIQQVRDFLTDPDTDAATIQEVSEAVLALWLPTDSATVLQKMNEIQAIAARLPNVDLVLSQTKQDIARARRLQAEAEEARSRAHAVEGQVEDVVGNLRQGTVALQEAQDTMQGTSRSLRLIQDRVAEVQQVLRPAEKLVTSMTKQLGDFWTRMEELRHQARQQGAEAVQAQQLAEGASEQALSAQEGFERIKQKYAELKDRLGQSSMLGEQGARIQSVKTEAEELFGETMEMMDRMKDMELELLRGSQAIMLRSADLTGLEKRVEQIRDHINGRVLYYATCK [LAMB3] | -0.552 | 1.4 | 53.8 | 53.6 | 0.117 | -0.12 |
| MRPQELPRLAFPLLLLLLLLLPPPPCPAHSATRFDPTWESLDARQLPAWFDQAKFGIFIHWGVFSVPSFGSEWFWWYWQKEKIPKYVEFMKDNYPPSFKYEDFGPLFTAKFFNANQWADIFQASGAKYIVLTSKHHEGFTLWGSEYSWNWNAIDEGPKRDIVKELEVAIRNRTDLRFGLYYSLFEWFHPLFLEDESSSFHKRQFPVSKTLPELYELVNNYQPEVLWSDGDGGAPDQYWNSTGFLAWLYNESPVRGTVVTNDRWGAGSICKHGGFYTCSDRYNPGHLLPHKWENCMTIDKLSWGYRREAGISDYLTIEELVKQLVETVSCGGNLLMNIGPTLDGTISVVFEERLRQMGSWLKVNGEAIYETHTWRSQNDTVTPDVWYTSKPKEKLVYAIFLKWPTSGQLFLGHPKAILGATEVKLLGHGQPLNWISLEQNGIMVELPQLTIHQMPCKWGWALALTNVI [FUCA2] | 2.46 | 3.64 | 54.8 | 54.8 | -0.00865 | -0.00976 |
